Test results from publication PMC11024254, “The DmsABC S-oxide reductase is an essential component of a novel, hypochlorite-inducible system of extracellular stress defense in Haemophilus influenzae” (Frontiers in Microbiology, 2024).

What was measured:
[1] = tested on: [O-][n+]1cccnc1; assay: purified protein; conditions: purified enzyme, 0.2 mM methyl viologen, 0.3 mM dithionite, 20 mM sodium phosphate pH 6.8, 37°C
[2] = tested on: NC(=O)c1ccc[n+]([O-])c1; assay: purified protein; conditions: purified enzyme, 0.2 mM methyl viologen, 0.3 mM dithionite, 20 mM sodium phosphate pH 6.8, 37°C

## MtsZ (HiMtsZ) (Haemophilus influenzae Rd KW20)
[1]
  Km: 35 ± 8 µM
  kcat: 33.2 ± 2.7 s⁻¹
[2]
  Km: 46 ± 8 µM
  kcat: 93 ± 5 s⁻¹
